In the supplement of paper PMC11811203:

B1: THAP1; numbered along this chain (parent)
chain: MVQSCSAYGCKNRYDKDKPVSFHKFPLTRPSLCKEWEAAVRRKNFKPTKYSSICSEHFTPDCFKRECNNKLLKENAVPTIFLCTEPHDKKEDLLEPQEQLPPPPLPPPVSQVDAAIGLLMPPLQTPVNLSVFCDHNYTVEDTMHQRKRIHQLEQQVEKLRKKLKTAQQRCRRQERQLEKLKEVVHFQKEKDDVSERGYVILPNDYFEIVEVPA

Variants of: B1
Experiment: THAP1 transcriptional activity (GFP+/GFP- enrichment relative to wild-type constructs) (ratio to WT); higher = more THAP1 activity (PSMB5 reporter activation)
Conditions: with PSMB5 promoter-GFP reporter
How it was run: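 In duplicate, a lentivirus-delivered library with every residue from 2–213 of human THAP1 changed to all 20 amino acids was introduced at MOI ~0.3 into THAP1-knockout HEK-293T cells carrying endogenous PSMB5 tagged by mClover3 knock-in. Five days on, BFP+ cells were binned as GFP-dim or GFP-bright, and Illumina sequencing of genomic DNA amplicons counted each variant. Activity is the bright/dim read fold change, averaged over replicates and scaled to the mean of wild-type synonymous constructs.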
MVQSCSAYGCKNRYDKDKPVSFHKFPLTRPSLCKEWEAAVRRKNFKPTKYSSICSEHFTPDCFKRECNNKLLKENAVPTIFLCTEPHDKKEDLLEPQEQLPPPPLPPPVSQVDAAIGLLMPPLQTPVNLSVFRDHNYTVEDTMHQRKRIHQLEQQVEKLRKKLKTAQQRCRRQERQLEKLKEVVHFQKEKDDVSERGYVILPNDYFEIVEVPA [C133R] showed a THAP1 transcriptional activity of 1.24. For MVQSCSAYGCKNRYDKDKPVSFHKFPLTRPSLCKEWEAAVRRKNFKPTKYSSICSEHFTPDCFKRECNNKLLKENAVPTIFLCTEPHDKKEDLLEPQEQLPPPPLPPPVSQVDAAIGLLMPPLQTPVNLSVFQDHNYTVEDTMHQRKRIHQLEQQVEKLRKKLKTAQQRCRRQERQLEKLKEVVHFQKEKDDVSERGYVILPNDYFEIVEVPA [C133Q], the THAP1 transcriptional activity was 1.27. MVQSCSAYGCKNRYDKDKPVSFHKFPLTRPSLCKEWEAAVRRKNFKPTKYSSICSEHFTPDCFKRECNNKLLKENAVPTIFLCTEPHDKKEDLLEPQEQLPPPPLPPPVSQVDAAIGLLMPPLQTPVNLSVFMDHNYTVEDTMHQRKRIHQLEQQVEKLRKKLKTAQQRCRRQERQLEKLKEVVHFQKEKDDVSERGYVILPNDYFEIVEVPA [C133M] showed a THAP1 transcriptional activity of 0.928. In the case of MVQSCSAYGCKNRYDKDKPVSFHKFPLTRPSLCKEWEAAVRRKNFKPTKYSSICSEHFTPDCFKRECNNKLLKENAVPTIFLCTEPHDKKEDLLEPQEQLPPPPLPPPVSQVDAAIGLLMPPLQTPVNLSVFWDHNYTVEDTMHQRKRIHQLEQQVEKLRKKLKTAQQRCRRQERQLEKLKEVVHFQKEKDDVSERGYVILPNDYFEIVEVPA [C133W], the THAP1 transcriptional activity is reported as 2.31. Variant MVQSCSAYGCKNRYDKDKPVSFHKFPLTRPSLCKEWEAAVRRKNFKPTKYSSICSEHFTPDCFKRECNNKLLKENAVPTIFLCTEPHDKKEDLLEPQEQLPPPPLPPPVSQVDAAIGLLMPPLQTPVNLSVFVDHNYTVEDTMHQRKRIHQLEQQVEKLRKKLKTAQQRCRRQERQLEKLKEVVHFQKEKDDVSERGYVILPNDYFEIVEVPA [C133V] has a THAP1 transcriptional activity of 2.05. MVQSCSAYGCKNRYDKDKPVSFHKFPLTRPSLCKEWEAAVRRKNFKPTKYSSICSEHFTPDCFKRECNNKLLKENAVPTIFLCTEPHDKKEDLLEPQEQLPPPPLPPPVSQVDAAIGLLMPPLQTPVNLSVFTDHNYTVEDTMHQRKRIHQLEQQVEKLRKKLKTAQQRCRRQERQLEKLKEVVHFQKEKDDVSERGYVILPNDYFEIVEVPA [C133T] showed a THAP1 transcriptional activity of 0.872. MVQSCSAYGCKNRYDKDKPVSFHKFPLTRPSLCKEWEAAVRRKNFKPTKYSSICSEHFTPDCFKRECNNKLLKENAVPTIFLCTEPHDKKEDLLEPQEQLPPPPLPPPVSQVDAAIGLLMPPLQTPVNLSVFYDHNYTVEDTMHQRKRIHQLEQQVEKLRKKLKTAQQRCRRQERQLEKLKEVVHFQKEKDDVSERGYVILPNDYFEIVEVPA [C133Y] showed a THAP1 transcriptional activity of 0.913. With MVQSCSAYGCKNRYDKDKPVSFHKFPLTRPSLCKEWEAAVRRKNFKPTKYSSICSEHFTPDCFKRECNNKLLKENAVPTIFLCTEPHDKKEDLLEPQEQLPPPPLPPPVSQVDAAIGLLMPPLQTPVNLSVFPDHNYTVEDTMHQRKRIHQLEQQVEKLRKKLKTAQQRCRRQERQLEKLKEVVHFQKEKDDVSERGYVILPNDYFEIVEVPA [C133P] the THAP1 transcriptional activity was 0.267. In the case of MVQSCSAYGCKNRYDKDKPVSFHKFPLTRPSLCKEWEAAVRRKNFKPTKYSSICSEHFTPDCFKRECNNKLLKENAVPTIFLCTEPHDKKEDLLEPQEQLPPPPLPPPVSQVDAAIGLLMPPLQTPVNLSVFLDHNYTVEDTMHQRKRIHQLEQQVEKLRKKLKTAQQRCRRQERQLEKLKEVVHFQKEKDDVSERGYVILPNDYFEIVEVPA [C133L], the THAP1 transcriptional activity is reported as 1.89. For MVQSCSAYGCKNRYDKDKPVSFHKFPLTRPSLCKEWEAAVRRKNFKPTKYSSICSEHFTPDCFKRECNNKLLKENAVPTIFLCTEPHDKKEDLLEPQEQLPPPPLPPPVSQVDAAIGLLMPPLQTPVNLSVFSDHNYTVEDTMHQRKRIHQLEQQVEKLRKKLKTAQQRCRRQERQLEKLKEVVHFQKEKDDVSERGYVILPNDYFEIVEVPA [C133S], the THAP1 transcriptional activity was 1.44. MVQSCSAYGCKNRYDKDKPVSFHKFPLTRPSLCKEWEAAVRRKNFKPTKYSSICSEHFTPDCFKRECNNKLLKENAVPTIFLCTEPHDKKEDLLEPQEQLPPPPLPPPVSQVDAAIGLLMPPLQTPVNLSVFNDHNYTVEDTMHQRKRIHQLEQQVEKLRKKLKTAQQRCRRQERQLEKLKEVVHFQKEKDDVSERGYVILPNDYFEIVEVPA [C133N] was tested, and the THAP1 transcriptional activity was 1.15. In the case of MVQSCSAYGCKNRYDKDKPVSFHKFPLTRPSLCKEWEAAVRRKNFKPTKYSSICSEHFTPDCFKRECNNKLLKENAVPTIFLCTEPHDKKEDLLEPQEQLPPPPLPPPVSQVDAAIGLLMPPLQTPVNLSVFCIHNYTVEDTMHQRKRIHQLEQQVEKLRKKLKTAQQRCRRQERQLEKLKEVVHFQKEKDDVSERGYVILPNDYFEIVEVPA [D134I], the THAP1 transcriptional activity is reported as 0.153. MVQSCSAYGCKNRYDKDKPVSFHKFPLTRPSLCKEWEAAVRRKNFKPTKYSSICSEHFTPDCFKRECNNKLLKENAVPTIFLCTEPHDKKEDLLEPQEQLPPPPLPPPVSQVDAAIGLLMPPLQTPVNLSVFCAHNYTVEDTMHQRKRIHQLEQQVEKLRKKLKTAQQRCRRQERQLEKLKEVVHFQKEKDDVSERGYVILPNDYFEIVEVPA [D134A] showed a THAP1 transcriptional activity of 0.125. MVQSCSAYGCKNRYDKDKPVSFHKFPLTRPSLCKEWEAAVRRKNFKPTKYSSICSEHFTPDCFKRECNNKLLKENAVPTIFLCTEPHDKKEDLLEPQEQLPPPPLPPPVSQVDAAIGLLMPPLQTPVNLSVFCKHNYTVEDTMHQRKRIHQLEQQVEKLRKKLKTAQQRCRRQERQLEKLKEVVHFQKEKDDVSERGYVILPNDYFEIVEVPA [D134K] showed a THAP1 transcriptional activity of 0.141. In the case of MVQSCSAYGCKNRYDKDKPVSFHKFPLTRPSLCKEWEAAVRRKNFKPTKYSSICSEHFTPDCFKRECNNKLLKENAVPTIFLCTEPHDKKEDLLEPQEQLPPPPLPPPVSQVDAAIGLLMPPLQTPVNLSVFCWHNYTVEDTMHQRKRIHQLEQQVEKLRKKLKTAQQRCRRQERQLEKLKEVVHFQKEKDDVSERGYVILPNDYFEIVEVPA [D134W], the THAP1 transcriptional activity is reported as 0.177. MVQSCSAYGCKNRYDKDKPVSFHKFPLTRPSLCKEWEAAVRRKNFKPTKYSSICSEHFTPDCFKRECNNKLLKENAVPTIFLCTEPHDKKEDLLEPQEQLPPPPLPPPVSQVDAAIGLLMPPLQTPVNLSVFCPHNYTVEDTMHQRKRIHQLEQQVEKLRKKLKTAQQRCRRQERQLEKLKEVVHFQKEKDDVSERGYVILPNDYFEIVEVPA [D134P] was tested, and the THAP1 transcriptional activity was 0.296. MVQSCSAYGCKNRYDKDKPVSFHKFPLTRPSLCKEWEAAVRRKNFKPTKYSSICSEHFTPDCFKRECNNKLLKENAVPTIFLCTEPHDKKEDLLEPQEQLPPPPLPPPVSQVDAAIGLLMPPLQTPVNLSVFCNHNYTVEDTMHQRKRIHQLEQQVEKLRKKLKTAQQRCRRQERQLEKLKEVVHFQKEKDDVSERGYVILPNDYFEIVEVPA [D134N] showed a THAP1 transcriptional activity of 0.121. With MVQSCSAYGCKNRYDKDKPVSFHKFPLTRPSLCKEWEAAVRRKNFKPTKYSSICSEHFTPDCFKRECNNKLLKENAVPTIFLCTEPHDKKEDLLEPQEQLPPPPLPPPVSQVDAAIGLLMPPLQTPVNLSVFCEHNYTVEDTMHQRKRIHQLEQQVEKLRKKLKTAQQRCRRQERQLEKLKEVVHFQKEKDDVSERGYVILPNDYFEIVEVPA [D134E] the THAP1 transcriptional activity was 0.389. MVQSCSAYGCKNRYDKDKPVSFHKFPLTRPSLCKEWEAAVRRKNFKPTKYSSICSEHFTPDCFKRECNNKLLKENAVPTIFLCTEPHDKKEDLLEPQEQLPPPPLPPPVSQVDAAIGLLMPPLQTPVNLSVFCFHNYTVEDTMHQRKRIHQLEQQVEKLRKKLKTAQQRCRRQERQLEKLKEVVHFQKEKDDVSERGYVILPNDYFEIVEVPA [D134F] gave a THAP1 transcriptional activity of 0.144. MVQSCSAYGCKNRYDKDKPVSFHKFPLTRPSLCKEWEAAVRRKNFKPTKYSSICSEHFTPDCFKRECNNKLLKENAVPTIFLCTEPHDKKEDLLEPQEQLPPPPLPPPVSQVDAAIGLLMPPLQTPVNLSVFCGHNYTVEDTMHQRKRIHQLEQQVEKLRKKLKTAQQRCRRQERQLEKLKEVVHFQKEKDDVSERGYVILPNDYFEIVEVPA [D134G] was tested, and the THAP1 transcriptional activity was 0.148. Variant MVQSCSAYGCKNRYDKDKPVSFHKFPLTRPSLCKEWEAAVRRKNFKPTKYSSICSEHFTPDCFKRECNNKLLKENAVPTIFLCTEPHDKKEDLLEPQEQLPPPPLPPPVSQVDAAIGLLMPPLQTPVNLSVFCMHNYTVEDTMHQRKRIHQLEQQVEKLRKKLKTAQQRCRRQERQLEKLKEVVHFQKEKDDVSERGYVILPNDYFEIVEVPA [D134M] has a THAP1 transcriptional activity of 0.159. MVQSCSAYGCKNRYDKDKPVSFHKFPLTRPSLCKEWEAAVRRKNFKPTKYSSICSEHFTPDCFKRECNNKLLKENAVPTIFLCTEPHDKKEDLLEPQEQLPPPPLPPPVSQVDAAIGLLMPPLQTPVNLSVFCTHNYTVEDTMHQRKRIHQLEQQVEKLRKKLKTAQQRCRRQERQLEKLKEVVHFQKEKDDVSERGYVILPNDYFEIVEVPA [D134T] gave a THAP1 transcriptional activity of 0.354. With MVQSCSAYGCKNRYDKDKPVSFHKFPLTRPSLCKEWEAAVRRKNFKPTKYSSICSEHFTPDCFKRECNNKLLKENAVPTIFLCTEPHDKKEDLLEPQEQLPPPPLPPPVSQVDAAIGLLMPPLQTPVNLSVFCCHNYTVEDTMHQRKRIHQLEQQVEKLRKKLKTAQQRCRRQERQLEKLKEVVHFQKEKDDVSERGYVILPNDYFEIVEVPA [D134C] the THAP1 transcriptional activity was 0.156. For MVQSCSAYGCKNRYDKDKPVSFHKFPLTRPSLCKEWEAAVRRKNFKPTKYSSICSEHFTPDCFKRECNNKLLKENAVPTIFLCTEPHDKKEDLLEPQEQLPPPPLPPPVSQVDAAIGLLMPPLQTPVNLSVFCSHNYTVEDTMHQRKRIHQLEQQVEKLRKKLKTAQQRCRRQERQLEKLKEVVHFQKEKDDVSERGYVILPNDYFEIVEVPA [D134S], the THAP1 transcriptional activity was 0.277. MVQSCSAYGCKNRYDKDKPVSFHKFPLTRPSLCKEWEAAVRRKNFKPTKYSSICSEHFTPDCFKRECNNKLLKENAVPTIFLCTEPHDKKEDLLEPQEQLPPPPLPPPVSQVDAAIGLLMPPLQTPVNLSVFCHHNYTVEDTMHQRKRIHQLEQQVEKLRKKLKTAQQRCRRQERQLEKLKEVVHFQKEKDDVSERGYVILPNDYFEIVEVPA [D134H] was tested, and the THAP1 transcriptional activity was 0.203. MVQSCSAYGCKNRYDKDKPVSFHKFPLTRPSLCKEWEAAVRRKNFKPTKYSSICSEHFTPDCFKRECNNKLLKENAVPTIFLCTEPHDKKEDLLEPQEQLPPPPLPPPVSQVDAAIGLLMPPLQTPVNLSVFCQHNYTVEDTMHQRKRIHQLEQQVEKLRKKLKTAQQRCRRQERQLEKLKEVVHFQKEKDDVSERGYVILPNDYFEIVEVPA [D134Q] showed a THAP1 transcriptional activity of 0.0618. For MVQSCSAYGCKNRYDKDKPVSFHKFPLTRPSLCKEWEAAVRRKNFKPTKYSSICSEHFTPDCFKRECNNKLLKENAVPTIFLCTEPHDKKEDLLEPQEQLPPPPLPPPVSQVDAAIGLLMPPLQTPVNLSVFCRHNYTVEDTMHQRKRIHQLEQQVEKLRKKLKTAQQRCRRQERQLEKLKEVVHFQKEKDDVSERGYVILPNDYFEIVEVPA [D134R], the THAP1 transcriptional activity was 0.265. With MVQSCSAYGCKNRYDKDKPVSFHKFPLTRPSLCKEWEAAVRRKNFKPTKYSSICSEHFTPDCFKRECNNKLLKENAVPTIFLCTEPHDKKEDLLEPQEQLPPPPLPPPVSQVDAAIGLLMPPLQTPVNLSVFCVHNYTVEDTMHQRKRIHQLEQQVEKLRKKLKTAQQRCRRQERQLEKLKEVVHFQKEKDDVSERGYVILPNDYFEIVEVPA [D134V] the THAP1 transcriptional activity was 0.123.
